Here are results for one substance from patent US20220211037A1, “BIOSENSORS FOR DROUGHT STRESS IN PLANTS” (The Regents of the University of California, priority 2019, published 2022).

The target of experiment [1] is 1:1 mixture of PYL3 containing PYL3-Cy5.5 and PYL3-BHQ3 (Arabidopsis thaliana). The experiment is described as follows: static light scattering of the PYL3-Cy5.5/PYL3-BHQ3 mixture, 1000 µM ABA.
Experiment [2] shares this target. In words: calculated from static light scattering of the mixture, 0.1 µM ABA.
Experiment [3] shares this target. In words: static light scattering of the PYL3-Cy5.5/PYL3-BHQ3 mixture, 0.1 µM ABA.
Experiment [4] has the same target. The experiment is described as follows: static light scattering of the PYL3-Cy5.5/PYL3-BHQ3 mixture, 40 µM ABA.
Experiment [5] has the same target. The experiment is described as follows: calculated from static light scattering of the mixture, 1000 µM ABA.
Experiment [6] shares this target. The experiment is described as follows: calculated from static light scattering of the mixture, 1.0 µM ABA.
Experiment [7] shares this target. In words: static light scattering of the PYL3-Cy5.5/PYL3-BHQ3 mixture, 100 µM ABA.
Experiment [8] shares this target. In words: Cy5.5 fluorescence of the PYL3-Cy5.5/PYL3-BHQ3 mixture (quenched in dimers), 1000 µM ABA.
Experiment [9] shares this target. The experiment is described as follows: Cy5.5 fluorescence of the PYL3-Cy5.5/PYL3-BHQ3 mixture (quenched in dimers), 40 µM ABA.
Experiment [10] shares this target. In words: calculated from static light scattering of the mixture, 100 µM ABA.
For experiment [11] the target is unchanged. In words: static light scattering of the PYL3-Cy5.5/PYL3-BHQ3 mixture, 1.0 µM ABA.
For experiment [12] the target is unchanged. In words: Cy5.5 fluorescence of the PYL3-Cy5.5/PYL3-BHQ3 mixture (quenched in dimers), 1.0 µM ABA.
Experiment [13] has the same target. The experiment is described as follows: Cy5.5 fluorescence of the PYL3-Cy5.5/PYL3-BHQ3 mixture (quenched in dimers), 0.1 µM ABA.
Experiment [14] has the same target. In words: Cy5.5 fluorescence of the PYL3-Cy5.5/PYL3-BHQ3 mixture (quenched in dimers), 100 µM ABA.
For experiment [15] the target is unchanged. The experiment is described as follows: calculated from static light scattering of the mixture, 40 µM ABA.

“1:1 mixture of PYL3 containing PYL3-Cy5.5 and PYL3-BHQ3”: the Average molar mass (measured, amu) in experiment [1] worked out at 31100 amu; in experiment [3], 51100 amu; in experiment [4] it was 43300 amu; in experiment [7], 34000 amu; in experiment [11], 47400 amu. Besides, the PYLs in dimers (hetero- and homodimers, %) in experiment [2] was 98%; in [5], 20%; in experiment [6], 84%; in [10] it was 32%; in experiment [15], 68%. The PYLs in monomers (%) in experiment [2] was 2%; in experiment [5], 80%; in experiment [6], 16%; in [10], 68%; in experiment [15], 32%. The Fluorescence (measured) in experiment [8] was found to be 9490 cps; in experiment [9] it was 5300 cps; in experiment [12] it was 4290 cps; in [13] it was 3960 cps; in [14], 6710 cps.
